Experiment [1] has as its target human OX40 on the cell surface (activated human T cells; Jurkat-OX40-NF-kB-Luc cells overexpressing human OX40) (human) (UniProt P43489). The experiment in a line: cell-based or functional assay.
For experiment [2], the target named is recombinant OX40-Fc protein (R & D, Cat 3388-OX) (human) (UniProt P43489). As to the kind of experiment: blocking ELISA: plate-coated OX40-Fc, serially diluted antibody, then OX40L at 50 ng/ml, bound OX40L detected.
recombinant OX40-Fc protein (R & D, Cat 3388-OX) (human), sequence (P43489 29-214): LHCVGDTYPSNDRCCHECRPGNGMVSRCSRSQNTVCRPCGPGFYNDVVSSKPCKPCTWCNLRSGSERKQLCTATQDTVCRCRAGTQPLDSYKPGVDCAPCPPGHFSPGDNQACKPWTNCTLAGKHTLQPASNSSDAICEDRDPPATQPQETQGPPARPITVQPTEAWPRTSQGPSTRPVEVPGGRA

human OX40 on the cell surface (activated human T cells; Jurkat-OX40-NF-kB-Luc cells overexpressing human OX40) (human), sequence (P43489 29-277): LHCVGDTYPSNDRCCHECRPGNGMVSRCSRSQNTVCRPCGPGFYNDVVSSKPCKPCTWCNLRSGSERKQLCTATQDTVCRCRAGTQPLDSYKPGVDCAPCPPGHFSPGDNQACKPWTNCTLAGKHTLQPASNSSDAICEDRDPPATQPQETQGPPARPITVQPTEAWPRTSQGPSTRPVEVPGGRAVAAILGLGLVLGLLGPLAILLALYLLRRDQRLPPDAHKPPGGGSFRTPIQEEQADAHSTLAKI

B1: GBR830 (reference OX40 antagonist antibody) (antibody, INN chains, looked up, V domains shown)
VH: QVTLKESGPALVKPTQTLTLTCSFSGFSLSTSGMGVGWIRQPPGKALEWIAHIWWDDDKYYNTALKTRLTISKDTSKNQVVLTMTNMDPVDTATYYCARIDWDGFAYWGQGTLVTVSS
VL: EIVLTQSPATLSLSPGERATLSCRASSSVSYMHWYQQKPGQAPRPWIYATSNRATGIPARFSGSGSGTDYTLTISSLEPEDFAVYYCQQWSSNPWTFGQGTKVEIK
Broadly, the IC50 is the point on the concentration scale where inhibition reaches its midpoint. B1 gave an IC50 of blocking the OX40L-mediated T cell activation (IFNy secretion) in experiment [1] of 1.1 nM. Further, in experiment [2], the half-inhibitory concentration (IC50) came to 0.3 nM and the maximum inhibition rate was 50%.

For the origin of these results see patent publication US20230242657A1.
